Assay results from patent US20260242478A1 (published 2026).
Where no end group is shown, it is not given here.

Experiments:
[1] = target: Anti-CD28 Fab (SEQ ID NOs: 696, 697); assay: phage binding ELISA; anti-CD28 Fab on plate pre-incubated with CD28 antigen as competitor, anti-M13 HRP detection
Target sequence in this assay (VH, as listed by the source, chain 1 of 2): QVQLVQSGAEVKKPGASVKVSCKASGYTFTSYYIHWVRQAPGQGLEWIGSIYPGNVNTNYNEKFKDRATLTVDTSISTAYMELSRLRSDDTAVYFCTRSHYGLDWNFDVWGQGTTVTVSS
Target sequence in this assay (VL, as listed by the source, chain 2 of 2): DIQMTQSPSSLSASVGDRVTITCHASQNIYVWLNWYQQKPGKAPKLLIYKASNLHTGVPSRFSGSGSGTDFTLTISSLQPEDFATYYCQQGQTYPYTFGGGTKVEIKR
Experimental: (§1) After panning, phage infected bacteria were plated out and colonies picked into 96 well blocks. Clonal phage was then amplified and separated from bacterial cells via centrifugation.
(§2) Clonal phage were harvested as crude supematants and screened via standard ELISAs. […] Prior to the addition of clonal phage, wells were incubated with blocking buffer and CD28 antigen or blocking buffer alone. Without washing or aspirating, clonal phage supematants were then added to the wells and incubated for a short time. Wells were then washed followed by detection of bound phage using a horse radish conjugated anti-M13 antibody. Clonal phage of interest were then sent for sequence analysis.

[2] = target: Anti-CD28 Fab (SEQ ID NOs: 696, 697); assay: phage binding ELISA; biotinylated anti-CD28 Fab on neutravidin plate, clonal phage supernatant, anti-M13 HRP detection
Target sequence in this assay (VH, as listed by the source, chain 1 of 2): as the sequence (VH, as listed by the source, chain 1 of 2) above
Target sequence in this assay (VL, as listed by the source, chain 2 of 2): as the sequence (VL, as listed by the source, chain 2 of 2) above

[3] = target: T1, Anti-CD28 Fab (SEQ ID NOs: 696, 697); assay: phage binding ELISA; biotinylated Fab on neutravidin plate, clonal phage supernatant, anti-M13 HRP detection;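 also: phage from clones picked after panning, added to wells pre-incubated with blocking buffer with or without CD28 antigen, then briefly incubated and washed before detection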
T1 construct: Biotinylated and captured on neutravidin coated plates in the phage ELISA
T1 sequence (VH, as listed by the source, chain 1 of 2): as the sequence (VH, as listed by the source, chain 1 of 2) above
T1 sequence (VL, as listed by the source, chain 2 of 2): as the sequence (VL, as listed by the source, chain 2 of 2) above
Experimental: as §1, §2

[4] = target: T1, Anti-CD28 Fab (SEQ ID NOs: 696, 697); assay: phage binding ELISA; Fab on plate pre-incubated with CD28 antigen as competitor, anti-M13 HRP detection;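 also: crude clonal phage supernatants screened by ELISA, with comparison wells pre-incubated in blocking buffer only, lacking CD28 antigen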
Experimental: as §1, §2

[5] = target: T2, Anti-CD28 Fab (SEQ ID NOs: 696, 697); assay: phage ELISA on captured anti-CD28 Fab; competitor CD28 antigen pre-incubated in the wells;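 also: clonal phage supernatants added to wells preloaded with CD28 antigen in blocking buffer, control wells buffer only, bound phage read via HRP-linked anti-M13 antibody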
T2 construct: Biotinylated Fab captured on neutravidin coated plates in the phage ELISA
T2 sequence (VH, as listed by the source, chain 1 of 2): as the sequence (VH, as listed by the source, chain 1 of 2) above
T2 sequence (VL, as listed by the source, chain 2 of 2): as the sequence (VL, as listed by the source, chain 2 of 2) above
Experimental: as §1, §2

[6] = target: T2, Anti-CD28 Fab (SEQ ID NOs: 696, 697); assay: phage ELISA; biotinylated anti-CD28 Fab on neutravidin plate, bound phage detected with anti-M13 HRP antibody
Experimental: as §1, §2

[7] = target: T3, Anti-CD28 Fab (SEQ ID NOs: 696, 697); assay: phage ELISA on anti-CD28 Fab pre-incubated with CD28 antigen as competitor, anti-M13 HRP detection
T3 construct: In the phage ELISA the Fab was biotinylated and captured on neutravidin coated plates
T3 sequence (VH, as listed by the source, chain 1 of 2): as the sequence (VH, as listed by the source, chain 1 of 2) above
T3 sequence (VL, as listed by the source, chain 2 of 2): as the sequence (VL, as listed by the source, chain 2 of 2) above

[8] = target: T3, Anti-CD28 Fab (SEQ ID NOs: 696, 697); assay: phage ELISA; biotinylated anti-CD28 Fab on neutravidin plate, clonal phage supernatant, anti-M13 HRP detection;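 also: crude supernatants of single phage clones picked after panning were screened for binding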

Binder	Anti-CD28 Fab signal in the presence of CD28 (phage binding ELISA) [1]	Anti-CD28 Fab signal (phage binding ELISA) [2]	Anti-CD28 Fab signal in the presence of CD28 (phage binding ELISA) [5]	Anti-CD28 Fab signal (phage binding ELISA) [6]	further results
YCAGHSSEYMWKCL [Phage-790]	0.07	1.85			
YCDGHLPMYFAKCM (cysteine pairing not given here; also: displayed on phage by fusion to pIII, pIII and linker sequence not given here, Clonal phage of the Peptide-87 library; not shown: fused to the pIII filament protein of the bacteriophage) [Phage-801]					Anti-CD28 Fab (SEQ ID NOs: 696, 697) signal [3]: 1.83; Anti-CD28 Fab signal in the presence of CD28 [4]: 0.06
YCEGHLPEYMMKCL (not shown: fused to the pIII filament protein of the bacteriophage) [Phage-779]			0.27	1.88	
YCEGHSLEYMAKCL (not shown: fused to the pIII filament protein of the bacteriophage) [Phage-777]			0.08	1.88	
YCEGHSPEYMWKCL (Tested as clonal phage supernatant) [Phage-771]					Phage binding ELISA, Anti-CD28 Fab signal in the presence of CD28 [7]: 0.09; Phage binding ELISA, Anti-CD28 Fab signal [8]: 1.89
YCAGHLPEYLSKCL [Phage-795]	0.07	1.84			
YCDGHSWAYMWKCL [Phage-791]	0.13	1.85			
YCEGHRPEYMAKCL [Phage-798]	0.07	1.83			
YCDGHLAMYMDKCL (not shown: fused to the pIII filament protein of the bacteriophage) [Phage-787]			0.08	1.86	
YCDGHTGVYFYKCL (not shown: fused to the pIII filament protein of the bacteriophage) [Phage-784]			0.08	1.87	
YCDGHMPEYLAKCL [Phage-788]	0.07	1.86			
YCEGHSWEYIGKCL (not shown: fused to the pIII filament protein of the bacteriophage) [Phage-782]			0.07	1.87	
YCEGHLSEYMSKCL (Tested as clonal phage supernatant) [Phage-774]					Phage binding ELISA, Anti-CD28 Fab signal in the presence of CD28 [7]: 0.09; Phage binding ELISA, Anti-CD28 Fab signal [8]: 1.88
YCEGHTSEYMNKCL (not shown: fused to the pIII filament protein of the bacteriophage) [Phage-785]			0.06	1.87	
YCDGHSALYMSKCL (not shown: fused to the pIII filament protein of the bacteriophage) [Phage-783]			0.08	1.87	
YCAGHAPEYMFKCM [Phage-797]	0.06	1.83			
YCEGHMSEYMAKCL (not shown: fused to the pIII filament protein of the bacteriophage) [Phage-775]			0.11	1.88	

Binder	Anti-CD28 Fab signal in the presence of CD28 (phage binding ELISA) [1]	Anti-CD28 Fab signal (phage binding ELISA) [2]	Anti-CD28 Fab signal in the presence of CD28 (phage binding ELISA) [5]	Anti-CD28 Fab signal (phage binding ELISA) [6]	further results
YCEGHRSEYMAKCL (not shown: fused to the pIII filament protein of the bacteriophage) [Phage-786]			0.06	1.86	
YCDGHLPEYMRKCL (not shown: fused to the pIII filament protein of the bacteriophage) [Phage-780]			0.08	1.88	
YCDGHSWEYIQKCL (Position 10 is printed as '--' and was read as unchanged (I); not shown: fused to the pIII filament protein of the bacteriophage) [Phage-776]			0.07	1.88	
YCEGHSPLYMSKCL (not shown: fused to the pIII filament protein of the bacteriophage) [Phage-781]			0.09	1.87	
YCDGHSSEYIVKCL (cysteine pairing not given here; also: displayed on phage by fusion to pIII, pIII and linker sequence not given here, Clonal phage of the Peptide-87 library; not shown: fused to the pIII filament protein of the bacteriophage) [Phage-802]					Anti-CD28 Fab (SEQ ID NOs: 696, 697) signal [3]: 1.83; Anti-CD28 Fab signal in the presence of CD28 [4]: 0.06
YCEGHSYEYMWKCL (not shown: fused to the pIII filament protein of the bacteriophage) [Phage-778]			0.08	1.88	
YCEGHVAEYMLKCL (Tested as clonal phage supernatant) [Phage-773]					Phage binding ELISA, Anti-CD28 Fab signal in the presence of CD28 [7]: 0.05; Phage binding ELISA, Anti-CD28 Fab signal [8]: 1.88
YCEGHLQIYMSKCL [Phage-796]	0.14	1.84			
YCDGHSAAYIMKCL [Phage-792]	0.09	1.84			
YCEGHSQEYMQKCL [Phage-794]	0.05	1.84			
YCDGHLAEYMPKCL (Tested as clonal phage supernatant) [Phage-770]					Phage binding ELISA, Anti-CD28 Fab signal in the presence of CD28 [7]: 0.07; Phage binding ELISA, Anti-CD28 Fab signal [8]: 1.89
YCDGHIDEYLQKCL (Tested as clonal phage supernatant) [Phage-772]					Phage binding ELISA, Anti-CD28 Fab signal in the presence of CD28 [7]: 0.06; Phage binding ELISA, Anti-CD28 Fab signal [8]: 1.88
YCDGHSPAYMAKCL [Phage-800]	0.1	1.83			
YCEGHLPEYMRKCL [Phage-799]	0.06	1.83			
YCEGHAAEYMSKCL [Phage-789]	0.07	1.86			
YCEGHAAEYMWKCL (cysteine pairing not given here; also: displayed on phage by fusion to pIII, pIII and linker sequence not given here, Clonal phage of the Peptide-87 library; not shown: fused to the pIII filament protein of the bacteriophage) [Phage-803]					Anti-CD28 Fab (SEQ ID NOs: 696, 697) signal [3]: 1.83; Anti-CD28 Fab signal in the presence of CD28 [4]: 0.07
YCDGHSLQYLGKCL [Phage-793]	0.09	1.84			
